Source: PMC2599749 (Protein expression and purification, 2008)

Columns and labels:
[1] = target: the molecule itself; experiment: HPLC/ESI mass spectrometry
non-reducing SDS-PAGE = target: the molecule itself; experiment: non-reducing SDS-PAGE

B1: bZIP domain of Activating Transcription Factor 5 (ATF5), untagged (domain or fragment, UniProt Q9Y2D1 208-271, looked up)
chain: GDRKQKKRDQNKSAALRYRQRKRAEGEALEGECQGLEARNRELKERAESVEREIQYVKDLLIEV
For B1, the “stoichiometry N” value [1] was 2 and the “monomer:dimer ratio (densitometry of the SDS-PAGE gel)” value (non-reducing SDS-PAGE) was 1.7 dimer per 1.0 monomer.
